Consider 2 substances from paper doi:10.1101/2024.11.07.622398.

Assay [1] concerns the target His-GST-tagged UBA7(U1) chimera (bovine | human) (UniProt P22314). Briefly: BLI.
Assay [2] deals with His-GST-tagged bovine UBA7(eCCL) (bovine). Briefly: BLI. (BLI is a label-free optical method that tracks binding on a fibre tip over time.)
The target of assay [3] is bovine UBA7 (bovine).
The target of assay [4] is bovine UBA7 (bovine). Briefly: SEC-MALS.
For assay [5], the target named is His-GST-tagged bovine UBA7(C597A) (bovine). The experiment in a line: BLI.

Sequence of His-GST-tagged UBA7(U1) chimera (bovine | human) (P22314 whole entry, change not shown): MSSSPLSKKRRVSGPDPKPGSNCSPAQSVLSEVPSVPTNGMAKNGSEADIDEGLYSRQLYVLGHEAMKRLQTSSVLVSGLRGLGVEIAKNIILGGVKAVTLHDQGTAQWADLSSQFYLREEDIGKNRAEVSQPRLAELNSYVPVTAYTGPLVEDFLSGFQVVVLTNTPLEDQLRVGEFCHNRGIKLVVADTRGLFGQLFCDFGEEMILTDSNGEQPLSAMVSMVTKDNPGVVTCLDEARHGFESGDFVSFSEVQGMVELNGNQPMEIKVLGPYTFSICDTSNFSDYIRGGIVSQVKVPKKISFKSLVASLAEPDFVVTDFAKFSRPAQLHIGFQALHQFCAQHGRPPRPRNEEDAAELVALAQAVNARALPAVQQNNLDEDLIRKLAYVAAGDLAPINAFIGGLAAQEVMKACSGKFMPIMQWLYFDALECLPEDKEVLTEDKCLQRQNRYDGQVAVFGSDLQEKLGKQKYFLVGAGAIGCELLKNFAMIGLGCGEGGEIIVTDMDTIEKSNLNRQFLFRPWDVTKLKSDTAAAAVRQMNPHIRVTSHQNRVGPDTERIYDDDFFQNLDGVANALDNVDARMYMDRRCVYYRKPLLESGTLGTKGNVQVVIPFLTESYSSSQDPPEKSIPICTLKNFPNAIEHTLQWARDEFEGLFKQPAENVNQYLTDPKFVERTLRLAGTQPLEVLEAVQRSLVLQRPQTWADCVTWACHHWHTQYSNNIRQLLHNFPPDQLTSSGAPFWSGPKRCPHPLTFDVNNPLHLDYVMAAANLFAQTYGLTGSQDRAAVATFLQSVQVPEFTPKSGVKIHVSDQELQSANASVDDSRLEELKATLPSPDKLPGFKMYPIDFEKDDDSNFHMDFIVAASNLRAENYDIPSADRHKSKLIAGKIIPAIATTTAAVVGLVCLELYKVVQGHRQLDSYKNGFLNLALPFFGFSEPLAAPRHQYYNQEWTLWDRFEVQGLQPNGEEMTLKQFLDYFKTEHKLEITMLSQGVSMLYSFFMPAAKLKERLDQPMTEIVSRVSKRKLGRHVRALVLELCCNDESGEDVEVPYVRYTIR

For “bovine UBE2L6(C86A) (from UniProt A5PJC4 1-153) (enzyme)”, the figures for the Kd in assay [1] and in assay [2] were 48 µM and 4 µM, respectively.

Regarding “bovine UBE2L6 (from UniProt A5PJC4 1-153) (enzyme)”, in the assay with bovine UBA7 (bovine) [3], the KM of disulfide complex formation (UBA7 titrated with UBE2L6, SDS-PAGE kinetics) is 1.3 µM. Moreover, in the assay with bovine UBA7 (bovine) [4], the stoichiometry N amounted to 1. For the same substance, the dissociation constant Kd in assay [5] stood at 1200 nM.

For orientation: Kd means the free concentration of one partner at which half of the binding sites on the other are occupied at equilibrium, for simple one-to-one binding. A word on the stoichiometry N: it is the number of molecules, sites or subunits per partner or assembly.
